Measured values as given in the supplement of paper PMC10567573.

B1: TRIM55 (parent)
chain: YLPTRGGTTMASGGRFRCPSCRHE

Variants of: B1
Experiment: protein stability index of a GFP-peptide fusion (GPS, HEK-293T) (PSI 1-6); higher = more stable
Settings: c terminus: a fixed tail appended
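Further: lentivirally expressed fusions sorted by FACS into six bins by GFP to DsRed ratio, PSI derived from sequencing read proportions per bin multiplied by bin number.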

Protein stability index, by site and new letter:
Y1: H 2.79, G 3.18, W 2.99, C 2.14, F 2.51, K 1.46, N 3.07, Q 2.45, S 3.15, L 2.06, A 2.59
H23: P 3.14, S 3.03, K 3.39, V 2
T9: R 1.82, G 1.26, F 2.12, M 1.36, P 2.49
G7: V 1.37, L 1.34, A 1.64, W 1.5, E 1.75, R 1.12, P 2.91
F16: A 3.43, K 2.01, Y 1.57, M 1.74, N 2.33, C 3.06
G14: M 2.76, Q 1.26, F 2.04, K 1.83, L 1.29, N 2.42, A 2.23
S12: G 2.1, D 1.34, M 1.76, T 1.49, P 2.32, I 2.18, A 1.87
T4: V 4.07, P 1.36, Q 1.7, M 1.26, E 3.35, W 1, Y 1.24
A11: R 1.37, Q 1.96, M 1.18, F 1.98, K 1.36
C18: N 3.15, Y 2.44, P 3.56, S 3.61, L 3.47, W 1.7, F 2.43, E 2.98, G 3.27, M 2.4
P19: W 3.12, M 1.61, R 2.78, N 2.6, Y 2, I 1.38, V 1.78, D 3.35
E24: T 1.78, L 1.57, I 1.41, P 2.29, C 2.07, D 1.93, K 2.04, S 1.53
L2: Q 1.02, E 2.98, W 2.7, K 1.32, R 1.77, T 1.38, P 1.71, H 2.78
G13: E 2.25, D 2.37, K 1.38, Q 1.51, I 1.33, A 2.47, N 1.89
C21: W 2.21, L 2.86, D 3.62, M 2.51, S 3.03, A 3.98
R17: T 2.96, I 1.69, N 2.24, H 2.56, L 2.6
S20: W 1.12, T 2.48, Y 1.46, K 2.27, G 1.92, E 2.01, L 2.09
G6: D 2.45, S 1.97, C 1.84, P 1.78, Y 1.37, W 1.46
M10: K 1.11, G 2.61, I 2.27, N 1.96, T 4.08, W 2.58, C 2.91
R15: A 2.02, M 1.31, H 1.39, D 2.78, V 1.24, P 1.49, Q 1.58, Y 1.44, E 2.35
R22: Q 2.12, H 2.4, C 1.97, Y 2.07, P 3.78, V 2.25, K 2.94, F 2.38
T8: C 3.19, R 1.94, V 2.03, L 4.11, Y 4.26, D 1.36, A 1.11, H 2.88
P3: D 1.04, V 1.97, I 1, E 1
R5: N 1.44, G 2, D 1.73, Q 2.28, W 3.96, V 1.51, A 1.87
